{"source": "patent US20250352611A1", "about": "“METHODS FOR TREATING CATARACTS USING POLYPEPTIDES” (REJUKON BIOPHARM INC., priority 2022, published 2025)", "key": {"[1]": {"target": "T1, G3BP1-GFP protein (Mus musculus, UniProt P97855)", "T1 construct": "Genes of full-length mouse G3BP1, G3BP1-eGFP; thrombin protease cleavage site (C); His6 (C); made in house; host or cells: Escherichia coli rosetta (DE3)", "test": "G3BP1-GFP phase separated droplet dissolution, confocal laser microscope", "format": "biochemical", "conditions": "60 uM polypeptide, 20 uM G3BP1-GFP", "description": "The prokaryotic expressed and purified G3BP1-GFP protein (pH7.5, 20 uM G3BP1-GFP) was induced to form phase separated droplets in vitro. Polypeptides Champ-E (RJK001), Champ-D (RJK002), Champ-K (RJK012) and Champ-Q (RJK005, […], SEQ ID NO: 34) (each of 60 uM) were added dropwise to the G3BP1-GFP droplets. The observation was performed continuously through a confocal laser microscope.\nFor G3BP1(FL)-eGFP, purified G3BP1(FL)-eGFP, Champ-E and its variants were changed were diluted to droplet buffer (50 mM Tris, pH 7.5, 150 mM NaCl) using SpinDesalt Column (smart). G3BP1(FL)-eGFP proteins were diluted to indicated concentrations and supplemented with PEG8000 with 1.25% final concentration for 10 min to induce phase separation as reported."}, "[2]": {"target": "T2, G3BP1 (Mus musculus, UniProt P97855)", "T2 construct": "Genes of full-length mouse G3BP1, G3BP1-eGFP; thrombin protease cleavage site (C); His6 (C); made in house; host or cells: Escherichia coli rosetta (DE3)", "test": "G3BP1 turbidity assay (OD395 nm)", "format": "biochemical", "conditions": "G3BP1 30 μM, ratio range 0.75 to 25, room temperature, 10 minutes", "description": "The turbidity of G3BP1 (30 μM) in the presence of various concentrations of Champ-E, Champ-D, Champ-K, or Champ-Q was measured at a wavelength of 395 nm. Briefly, G3BP1 protein ([…]) and polypeptides Champ-E (RJK001), Champ-D (RJK002), Champ-K (RJK012) and Champ-Q (RJK005) were mixed well in a ratio range of 0.75 to 25 at room temperature for 10 minutes prior to turbidity assays. Absorbance at 395 nm (OD395 nm) was monitored at room temperature using Nanodrop ONE (Thermo Fisher Scientific, Inc.). […] The turbidity level reflects the degree of phase separation.\nBriefly, the G3BP1 protein and the above-mentioned peptides were mixed at room temperature for 10 minutes prior to turbidity assays. 30 μM G3BP1 and peptide were mixed well in a ratio range of 0.75 to 25 before test. Absorbance at 395 nm (OD395 nm) was monitored at room temperature using Nanodrop ONE (Thermo Fisher Scientific, Inc.).\nWe followed the Turbidity Assays experiment as previously reported. Briefly, G3BP1 turbidity analysis were at room temperature and γD-crystallin protein was at 4° C. Proteins and Champ-E(RJK001), Champ-K, Champ-D or mutants are mixed at room temperature for 10 minutes prior to turbidity assays. 20 μM G3BP1 and 50 mg/ml(2.5 mM) γD-crystallin and peptide were mixed well in a ratio range of 0.75 to 25 before test. Absorbance at 395 nm (OD395 nm) was monitored at room temperature using Nanodrop ONE (Thermo Fisher Scientific, Inc.)."}, "[3]": {"test": "Half-life of cell-penetrating peptide fused Champ peptides in eukaryotic cells (western blot)", "format": "in vitro ADME", "conditions": "SH-SY5Y cells harvested at 1 h, 4 h, 8 h and 24 h, western blot", "description": "(§1) As described in Example 1, the polypeptide RJK001 was fused at its C-terminal with a cell-penetrating peptide ([…]) and the polypeptide RJK012 was fused at its N-terminal with a cell-penetrating peptide ([…]).\n(§2) C-terminal fusion cell-penetrating peptide RJK001 and N-terminal fusion cell-penetrating peptide RJK012 were purified in vitro and added into SH-SY5Y cell. Cells were harvested at 1 h, 4 h, 8 h and 24 h respectively and were washed with PBS. Total proteins were extracted from SH-SY5Y cells with lysis buffer. Equal amounts of protein (20 μg) were separated by SDS-PAGE (15% separating gel). For data analysis, ImageJ was used to detect the Integrated density of each protein bands, and the ratio and half-life of Champ peptides were calculated by comparing with the positive control. […]\n(§3) Cells were harvested at 1 h, 4 h, 8 h and 24 h respectively and were washed with PBS. […] For data analysis, quantification of the western blot bands was achieved using the software GELPRO (Media Cybernetics). The ratio and half-life of Champ peptides were calculated by comparing with the positive control. The presented quantitative data were calculated from three independent experiments."}, "[4]": {"system": "γD (W42D) aggregates in the SH-SY5Y cell", "test": "γD (W42D) aggregates in SH-SY5Y cells, live imaging and CellProfiler analysis", "format": "cell-based", "conditions": "added every 4 hours for a total of 24 hours", "description": "Cells were grown in a 12-well plate (1×10^5 cells per well) for 24 hours and transfected with γD (W42D) plasmid using EZtrans transfection reagent. 24 hours after transfection, Champ peptides RJK001 (final concentration of 20 uM) and RJK0012 (final concentration of 10 uM and 20 uM) were added into SH-SY5Y cell culture medium every 4 hours for a total of 24 hours. The effect of RJK001 and RJK012 polypeptide on the γD (W42D) aggregates in the SH-SY5Y cell mode were analyzed using a custom CellProfiler software. Briefly, cell bodies were then segmented and identified by the GFP fluorescence channel images and tracing outward to the limits of the cytoplasmic (using a diameter cutoff of 100-300 pixels). The cell bodies were used as masks to eliminate imaging artifacts outside of cell boundaries, such as background fluorescence or dead cells. After masking, punctate structures were enhanced by image processing for speckle-like features that were 10 pixels in diameter for SH-SY5Y cells and these punctate structures were then annotated as features such as γD (W42D) puncta. Finally, the total image area which was enclosed in each of the identified features (number of cell and punctate) was calculated and output to spreadsheets. At least 200 cells per sample were analyzed. […]\nGranules screen and assay images were segmented and image features quantified using a custom CellProfiler and ImageJ software. […] The effect of RJK001 and RJK012 polypeptide on the γD ([…]) aggregates in the SH-SY5Y cell mode were analyzed using a custom CellProfiler software. Briefly, cell bodies were then segmented and identified by the GFP fluorescence channel images and tracing outward to the limits of the cytoplasmic (using a diameter cutoff of 100-300 pixels). The cell bodies were used as masks to eliminate imaging artifacts outside of cell boundaries, such as background fluorescence or dead cells. […] Finally, the total image area which was enclosed in each of the identified features (number of cell and punctate) was calculated and output to spreadsheets. At least 200 cells per sample were analyzed."}, "[5]": {"target": "T3, wild-type human full-length γD-crystallin (human, UniProt P07320 1-174)", "T3 construct": "It was uniformly 15N-labelled for the HSQC experiment and unlabelled for the turbidity assay; also called full-length wildtype γD-crystallin protein; 15N γD-crystallin", "T3 sequence (looked up)": "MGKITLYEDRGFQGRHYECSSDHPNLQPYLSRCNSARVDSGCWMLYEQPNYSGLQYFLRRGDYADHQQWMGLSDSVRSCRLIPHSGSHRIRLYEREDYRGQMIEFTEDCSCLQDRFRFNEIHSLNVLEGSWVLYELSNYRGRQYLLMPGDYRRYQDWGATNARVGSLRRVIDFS", "test": "1H-15N HSQC NMR chemical shift differences, 15N γD-crystallin with unlabeled RJK001 at 1:2", "quoted_text": "Using final 300 uM human γD-crystallin at 25° C., the two-dimensional [¹H-¹⁵N] heteronuclear single quantum coherence (HSQC) spectra were recorded to determine the domain interactions at the residue-specific level."}, "[6]": {"system": "SH-SY5Y cells", "test": "Half-life of cell-penetrating peptide fused Champ peptides in eukaryotic cells (western blot)", "format": "in vitro ADME", "description": "as §1, §2, §3"}}, "note": "Where no end group is shown, it is not given here."}
{"molecule": "TDPQDDSDDDVDDPDDRQQTPDVVPDDSGTFYDQTVSNDLD [RJK002, Asp variant of Champ-E]", "values": [{"measurement": "dissolution of G3BP1-GFP phase separated droplets", "setting": "[1]; pH7.5, 40s after addition", "result": "partially dissolved the phase separated droplets"}, {"measurement": "dissolution of G3BP1-GFP phase separated droplets", "setting": "[1]; pH7.5, 120s after addition", "result": "dissolved more phase separated droplets"}, {"measurement": "turbidity of G3BP1 (OD395 nm)", "setting": "[2]", "result": "reduced the turbidity in a concentration dependent manner"}]}
{"molecule": "TEPQEESEEEVEEPEERQQTPEVVPDDSGTFYDQTVSNDLEGGRKKRRQRRRHHHHHHHH", "values": [{"measurement": "half-life", "setting": "[3]", "result": "~8", "unit": "h"}]}
{"molecule": "TKPQKKSKKKVKKPKKRQQTPKVVPDDSGTFYDQTVSNDLK [RJK012, Lys variant of Champ-E]", "values": [{"measurement": "dissolution of G3BP1-GFP phase separated droplets", "setting": "[1]; pH7.5, 40s after addition", "result": "significantly dissolved the phase separated droplets"}, {"measurement": "turbidity of G3BP1 (OD395 nm)", "setting": "[2]", "result": "reduced the turbidity in a concentration dependent manner"}, {"measurement": "number of γD (W42D) aggregates in the SH-SY5Y cell", "setting": "[4]; 10 uM", "result": "reduced the number of γD (W42D) aggregates in the SH-SY5Y cell in a time-dependent manner until 6 hours"}, {"measurement": "number of γD (W42D) aggregates in the SH-SY5Y cell", "setting": "[4]; 20 uM", "result": "reduced the number of γD (W42D) aggregates in the SH-SY5Y cell in a time-dependent manner until 12 hours"}]}
{"molecule": "TQPQQQSQQQVQQPQQRQQTPQVVPDDSGTFYDQTVSNDLQ [RJK005]", "values": [{"measurement": "dissolution of G3BP1-GFP phase separated droplets", "setting": "[1]; pH7.5, 120s after addition", "result": "did not dissolve the phase separated droplets"}, {"measurement": "turbidity of G3BP1 (OD395 nm)", "setting": "[2]", "result": "much less effect on the reduction of the turbidity"}]}
{"molecule": "TEPQEESEEEVEEPEERQQTPEVVPDDSGTFYDQTVSNDLE (The peptide was unlabeled in the NMR experiment; also called short peptide RJK001)", "note": "[Champ-E (RJK001)]", "values": [{"measurement": "binding result", "setting": "[5]", "result": "binds"}]}
{"molecule": "RQIKIWFQNRRMKWKKKTKPQKKSKKKVKKPKKRQQTPKVVPDDSGTFYDQTVSNDLKSGRPVLHHHHHH (peptide) RQIKIWFQNRRMKWKKKTKPQKKSKKKVKKPKKRQQTPKVVPDDSGTFYDQTVSNDLKSGRPVLHHHHHH", "values": [{"measurement": "turbidity of G3BP1 (OD395 nm)", "setting": "[2]", "result": "reduce the turbidity in a concentration dependent manner"}, {"measurement": "half-life in eukaryotic cells", "setting": "[6]", "result": "about 8 hours"}]}
